# Assay results reported in patent publication US6790824B1, “Cytokines having neurotrophic activity” (Biopharm Gesellschaft zur biotechnologischen Entwicklung …, priority 1997, dated 2004).
# How the values were obtained:
# [1] = test system: chick sympathetic ganglionic (SG) neurons; test: Survival of embryonic chick sympathetic ganglionic (SG) neurons, 72 h, counting of surviving neurons; assay type: cell-based
# Description: (§1) Embryonic chick ciliary (CG), dorsal root (DRG), and sympathetic (SG) ganglia at embryonic day(s) (E) 8, 10, and 12, were dissected, freed from nerve roots and connective tissue and collected in CME. Ganglia were incubated in trypsin (ICN), washed and dissociated by trituration using fire-polished Pasteur pipettes. Cultures were set up in 96-well microtiter plates (Costar, A/2), precoated with poly-L-ornithine and laminin at a density of 1,200-1,500 cells/well in DMEM supplemented with N1 additives, 0.25% BSA, and 0.1% PSN (DME/N1) and incubated at 37° C. in a 5% CO2 incubator.
# (§2) At appropriate times (CG: 24 h, DRG: 48 h, SG: 72 h) cultures were fixed by addition of 2.5% glutardialdehyde in phosphate buffered saline (PBS). Numbers of surviving neurons were determined by direct counting of 30% of the surface area using phase contrast microscopy.
# [2] = test system: preganglionic neurons to the adrenal medulla; test: Preganglionic neuron protection in vivo after adrenomedullectomy; set-up: species or system rat; settings: adult rats, 1 μg GDNF in gelfoam into the medullectomized adrenal gland, four weeks
# Description: This type of target deprivation causes the death of all preganglionic neurons to the adrenal medulla at four weeks, as previously shown by Blottner and Baumgarten (Exp. Neurol. 118 (1992) 35-46).
# Adrenomedullectomy was performed on adult male Hanover-Wistar rats. Preganglionic neurons in the spinal cord innervating adrenal medullary chomaffin cells were identified by retrograde tracing with Fast Blue or Fluoro-Gold (FG). Factors (1 μg each) were soaked in gelfoam (Spongostan, Ferrosan, Soeburg, Denmark) prior to implantation into unilaterally medullectomized adrenal glands. Numbers of FG-labeled preganglionic neurons were determined by cell counts of complete series of longitudinal sections through spinal cord segments T7-T10 four weeks post-surgery. Only brightly fluorescent neurons containing a clearly visible nucleus were counted. Total numbers were corrected for possible double counts of split nuclei according to Abercombie's formula. Numbers of preganglionic neurons to the adrenal medulla surviving in sham-operated animals and on the unlesioned side were set as 100%. Data are given as mean values±SEM and the statistical significance of intergroup differences was determined by Student's t-test.
# [3] = test system: embryonic chicken dorsal root ganglia (DRG) neurons; test: Survival of dissociated embryonic chick dorsal root ganglia (DRG) neurons, 48 h, counting of surviving neurons; assay type: cell-based
# Description: Dissociated cultures of embryonic chicken dorsal root ganglia (DRG) were generated as described in details by Krieglstein and Unsicker (Neurochem. Res., 21(7) (1996) 843-850). Briefly, DRGs from white Leghorn chick embryos (day 8) were dissected in Ca^2+-Mg^2+ free Hanks' balanced salt solution. After incubation in 0.08% trypsin for 15 min ganglia were dissociated by trituration. Cells were seeded in polyomithin-laminin coated 96-well microtiter plates (A/2 Costar) at a density of 1,200 cells/well. Growth factors were applied at the time of plating in a final volume of […] Dulbecco's Modified Eagle's Medium supplemented with 0.25% bovine serum albumin, N1 additives and 100 U/ml penicillin. As a positive control, nerve growth factor (NGF) was used at the saturating concentration of 5 ng/ml. After 48 h of incubation at 37° C. in a humidified atmosphere containing 5% CO2, cultures were fixed with 2.5% glutaraldehyde. Neuronal cells were identified by their phase-bright and neurite-bearing morphologies and counted within 30% of the total surface area using phase contrast microscopy. In the first set of experiments we tested the survival promoting effect of several growth factors of the bone morphogenetic protein family.
# as §1, §2
# Dissociated cultures of embryonic chicken dorsal root ganglia (DRGs) were generated as described in details by Krieglstein and Unsicker (Dev. Brain. Rees. 93 (1996) 10-17). Briefly, DRGs were dissected in Ca^2+-Mg^2+ free Hank's balanced salt solution (CMF). After incubation in 0.08% trypsin (BioWhittaker) for 15 min, ganglia were dissociated by gentle trituration using fire-polished Pasteur pipettes. Cells in suspension (neuron/non-neuron ratio 1:2) were seeded in polyomithin-laminin coated 96-well microtiter plates (A/2 Costar) at a density of 1,200 cells/well. Growth factors were applied at the time of plating in a final volume of 50 μl Dulbecco's Modified Eagle's Medium supplemented with 0.25% bovine serum albumin, N1 additives (Bottenstein et al., Exp. Cell Res. 125 (1980) 183-190) and 100 U/ml penicillin. As a positive control, nerve growth factor (NGF) was used at the saturating concentration of 10 ng/ml. After 48 h of incubation at 37° C. in a humidified atmosphere containing 5% CO2, cultures were fixed with 2.5% glutaraldehyde in phosphate buffered saline (PBS). Neuronal cells were identified by their phase-bright and neurite-bearing morphologies and counted within 30% of the total surface area using phase contrast microscopy. All experiments were performed in at least triplicate in two independent experiments. Data are presented as mean±SEM. Statistical comparisons were made with student's double t-test, ANOVA and MicrocalOrigin software. Differences were considered statistically significant at *P<0.05, **P<0.01, **P<0.001.
# [4] = test system: embryonic chicken dorsal root ganglia (DRG) neurons; test: as above; assay type: cell-based; settings: E8, 10% horse serum, saturating GDNF; compared with NGF in serum-free medium
# [5] = test system: chick ciliary ganglionic (CG) neurons; test: Survival of embryonic chick ciliary ganglionic (CG) neurons, 24 h, counting of surviving neurons; assay type: cell-based
# Description: as §1, §2
# Phosphatidylinositol-specific phospholipase C (PIPLC) is an enzyme that specifically cleaves glycosyl-phosphatidylinositol (GPI) linkages. Embryonic chick ciliary ganglionic neurons (E8) were isolated and seeded as described before. Neurons were incubated for 1 h at 37° C. with 1) 100 mU PIPLC or II) 100 mU PIPLC+2 ng/ml TGFβ or III) without enzyme and then growth factors were added. The number of surviving neurons was determined 24 h later.
# [6] = test system: rat embryonic mesencephalic dopaminergic neurons (E14); test: Survival of rat embryonic mesencephalic dopaminergic neurons, count of tyrosine hydroxylase (TH) immunoreactive neurons after 8 days; assay type: cell-based; settings: GDNF 10 ng/ml, TGF-β3 2 ng/ml, 8 days in culture
# Description: FIG. 8 depicts the survival promoting effect of GDNF on rat embryonic mesencephalic dopaminergic neurons (E14) is dependent on the presence of TGF-β. Dissociated cultures were treated with GDNF (10 ng/ml), with GDNF in the presence of anti-TGF-β1, -β2, -β3 (10 μg/ml), with TGF-β3 (2 ng/ml) or without any growth factor added (control) for 8 days in culture. Numbers of dopaminergic neurons were determined by counting the numbers of tyrosine hydroxylase (TH) immunoreactive neurons.
# [7] = E8, serum-free, factor added by itself
molecule,measurement,setting,value
"GDNF: rh GDNF, neurotrophic factor, member of the TGF-β superfamily (protein, UniProt P39905 78-211, looked up) Glial cell line-derived …: SPDKQMAVLPRRERNRQAAAANPENSRGKGRRGQRGKNRGCVLTAIHLNVTDLGLGYETKEELIFRYCSGSCDAAETTYDKILKNLSRNRRLVSDKVGQACCRPIAFDDDLSFLDDNLVYHILRKHSAKRCGCI",SG neuron survival with GDNF in serum containing medium,"[1]; E8, 10% horse serum, saturating GDNF, compared with NGF in serum-free medium",levels identical to those achieved by addition of the respective neurotrophic factor
same,"SG neuron survival, single factor in serum-free medium",[1]; [7],virtually no survival promoting effect
same,protection of preganglionic neurons after adrenomedullectomy,[2],fully protected the neurons
same,"DRG neuron survival, single factor in serum-free medium",[3]; [7],virtually no survival promoting effect
same,effect on DRG neuron survival when added together with GDF-5,"[3]; factor at saturating concentration plus GDF-5 20 ng/ml, E8, 48 h",synergistic or additive effects
same,DRG neuron survival with GDNF in serum containing medium,[4],levels identical to those achieved by addition of the respective neurotrophic factor
same,CG neuron survival with GDNF supplemented with 10% horse serum,"[5]; E8, 24 h, compared with CNTF 5 ng/ml",as effectively as a saturating concentration of CNTF
same,EC50 of the synergistic survival effect,"[5]; factor titrated in combination with 2 ng/ml of the other factor (GDNF/TGF-β), serum-free",0.06 ng/mL
same,"CG neuron survival, single factor in fully-defined medium","[5]; serum-free, each at the saturating amount of 2 ng/ml",only marginal survival promoting effects
same,survival of dopaminergic neurons relative to untreated control cultures,[6],160%
